These results are taken from patent US20220125947A1.

The labels stand for the following.
B1: VG9B380 (antibody, human IgG1, lambda, V domains shown)
VH: QVQLQESGPGLVKPSETLSLTCTVSGGSISNYYWSWIRQPAGKGLEWIGRIYPSGITSYDPSLKSRVTMSLDTSKNQFSLKLTSVTAADTAVYYCAGIMGTKGAFDIWGQGTMVTVSS
VL: QSALTQPASVSGSPGQSITISCTGTSSDVGGYNYVSWYQQHPGKAPKLLIYEVSNRPSGVSNRFSGSKSGSTASLTISGLQAEDEADYYCSSYTSTSVVFGGGTKLTVLG
B2: VG9B163 (antibody, human IgG1, lambda, V domains shown)
VH: QVQLVQSGGGLVKPGASLKLSCAASGFTFSNHGMSWVRQTSDKRLEWVASITRGGDTTYYPDNVKGRFTISRENAKNTLYLQMSSLKSDDTALYYCTRGPLTVGYAMDYWGQGTTVTVSS
VL: QLVLTQPPSVSAAPGQKVTISCSGNSSNIGHNYVSWYQQLPGTAPKLLIYDNNQRPSGIPDRFSGSKSDTSATLGITGLQTGDEADYYCGIWDSSLSIVVFGGGTKVTVLG
B3: VG9B103 (antibody, human IgG1, kappa, V domains shown)
VH: EVQLVQSGAEVKKPGSSVKVSCKTSGGTFSSYAISWVRQAPGQGLEWMGGIIPIFGTATYAQKFQDRVTITADKSTSTAYMELSSLRSEDTAVFYCARGVGWGTDYYYGLDVWGQGTTVTVSS
VL: ETTLTQSPLSSPVTLGQPASISCRSSQGLVHSDGNTYLSWLQQRPGQSPRLLIYKISNRFSGVPDRFSGSGAGTDFTLKISRVEAEDVGVYYCMQATHHPLTFGGGTKVEIKR
B4: VG9B470 (antibody, human IgG1, kappa, V domains shown)
VH: QVTLKESGPTLVKPTQTLTLTCTFSGFSLTTSGVGVGWIRQPPGKALEWLALILWNDHTIYSPSLKSRLTITKDTSKNQVVLTMTNMDPVDTAAYFCARDKWELRDAFDIWGQGTMVTVSS
VL: EIVMTQSPSFLSASVGDRVTFTCRASQGISRYLAWYQQKPGRAPNLLIYVASTLQSGVPSRFSGSGSGTEFTLTISSLLPEDFATYYCQQLISYPYTFSQGTRLEIKR
B5: VG9B411 (antibody, human IgG1, kappa, V domains shown)
VH: EVQLVESGGGLVKPGGSLRLSCSASGFTFSNYDMNWVRQAPGKGLEWVSSISSSSSYIYYADSVKGRFTISRDNAKNSLYLQMNSLRAEDTAVYHCARDVGVTTDYYYYGMDVWGQGTTVTVSS
VL: EIVMTQSPSSVSASVGDRVTITCRASQGINSWLAWYQQDPYKAPKLLIYAASTLQSGVPSRFGGRGSGTEFTLTISSLQPEDFAVYYCQQYNNWPRTFGQGTKVDIKR
B6: VG9B396 (antibody, human IgG1, lambda, V domains shown)
VH: EVQLVESGPGLVQPSETLSLTCTVSGDSIRGYYWNWIRQPAGKGLEWIGRIFTTGNTNYNPSLKSRLTMSLDTSKNQFSLKLNSVTAADTAVYYCAREKWDSSSSALYFDFWGQGTLVTVSS
VL: QSVLTQAPSVSGAPGQRVTISCTGSSSNIGADYDVKWYQQLPGTAPKLLIYGNTDRPSGVPDRFSGSKSGTSASLAITGLQAEDEADYYCQSYDSRLTGYVVFGGGTKLTVLG
B7: VG9B382 (antibody, human IgG1, lambda, V domains shown)
VH: QVQLQESGPGLVKPSETLSLTCTVSGDSISGYYWNYIRQPAGKGLDWIGRIFTTGNTNYNPSLKSRVTMSVDTSKNQFSLKLTSVTAADTAVYYCARERWDSSSSALYFDYWGQGTLVTVSS
VL: B6 VL with A7P, V35I, T54S, D55N, A73V, R96S, L97M, T98S
B8: VG9B86 (antibody, human IgG1, kappa, V domains shown)
VH: QVQLQESGPGLVKPSETLSLTCTVSGDSISSSYWSWIRQPAGKGLECIGRFYSSGSTSYNPSLKSRVTMAIDTSKNQFSLKLTSVTAADTAVYYCARYSGSYWYFDLWGRGTTVTVSS
VL: EIVLTQSPATLSLSPGERATLSCRASQSVSSYLAWYQQRPGQAPRLLIYDTSNRATGIPARFSGSGSGTDFTLTISSLAPEDFAVYYCQQRSDWLLTFGGGTKVEIKR
B9: VG9B201 (antibody, human IgG1, lambda, V domains shown)
VH: QVTLKESGPTLVKPTQTLTLTCTFSGFSLTTHGVGVGWIRQPPRKALEWLALIYWNADKHYSPSLKSRLTITKDTSKNQVVLTMTHMDPVDTATYYCAHEGDWGHYFDFWGQGTLVTVSS
VL: QLVLTQPPSVSAAPGQKVTISCSGSSSNIGNNDVSWYQQLPGTAPKLLIYDNNRRPSGIPDRFSGSKSGTSATLGITGLQTGDEADYYCETWDSSLSAIWVFGGGTKVTVLG
B10: VG9B383 (antibody, human IgG1, lambda, V domains shown)
VH: QVQLQESGPGLVKPSETLSLTCTVSSGSISSYYWNWIRQPAGKGLEWVGRIYTIGNTNYNPSLKSRVTMSIDTSKNQFSLNLSSVTAADTAVYFCAREGYYDSSGSFFPGAFGIWGQGTMVTVSS
VL: SSELTQPASVSGSPGQSITISCTGTSNDVGSYNLVSWYQQHPGKAPKLMIYAGSKRPSGISNRFSGSKSGNTASLTISGLQAEDEADYYCCSFAGATNVVFGGGTKLTVLG
B11: VG9B465 (antibody, human IgG1, lambda, V domains shown)
VH: QVQLQQSGPGLVKPSETLSLTCTVSGGSITSYYWNWIRQPAGKGLEWIGRIYTIGNTNYNPSLKSRVTMSIDTSKHQFSLKLSSVTGADTAVYYCAREGYYESDGSFFPGAFNIWGQGTMVTVSS
VL: B10 VL with F93Y, A96T, L107V
B12: VG9B194 (antibody, human IgG1, lambda, V domains shown)
VH: EVQLLESGAEVKKPGASVKVSCKASGYTFTGDYMHWVRQAPGQGLEWMGWINPNSGYTNNAEKFQGRVTMTRDTSISTAYMELSRLSSDDTAVYYCTRELDALDVWGQGTMVTVSS
VL: QSVLTQPPSASGSPGQSVTISCTGTSSDVGGYNYVSWYQQHPGKAPKLMIYEVSKRPSGVPDRFSGSKSGNTASLTVSGLQAEDEADYYCNSYAGSNNFEVFGGGTKVTVLG

Substitutions are numbered along the chain they refer to.

Vg9/Vd1 T cell receptor on SKW3 cells, sequence (Q99603 21-122): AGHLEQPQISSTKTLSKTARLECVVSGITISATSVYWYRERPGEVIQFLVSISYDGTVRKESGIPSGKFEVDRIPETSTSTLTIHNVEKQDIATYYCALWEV
Vg9/Vd1 T cell receptor expressed on SKW3 cells, sequence (Q99603 21-122): as above

The first assay has as its target Vg9/Vd1 T cell receptor expressed on SKW3 cells (UniProt Q99603). Briefly: flow cytometry, dose-response binding at 37 C, SKW3 cells expressing Vg9/Vd1.
Take B1: the Max. Activity (fold over background) was 11.6.
The same measure, in the same setting: the same measure for B2: 10.6; for B3: 1.79.

The target of the next assay is Vg5/Vd2 T cell receptor on SKW3 cells (UniProt A0JD36). Briefly: flow cytometry, DRC binding at 37°C on SKW3 cells expressing Vg5/Vd2. A general note: A flow cytometer gives signals particle by particle.
Vg5/Vd2 T cell receptor on SKW3 cells, sequence (A0JD36 20-115): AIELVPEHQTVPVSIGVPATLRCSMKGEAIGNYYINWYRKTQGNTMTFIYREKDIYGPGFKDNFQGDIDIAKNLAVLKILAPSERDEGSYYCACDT
As to B4, the Max. Activity (fold over background) came to 231.
The same measure, in the same setting: the same measure for B5: 2.76.
In turn, B6 registered a Max. Activity (fold over background) of 222.
On the same count and under the same terms, the same measure for B7: 275; for B8: 207; for B9: 205.
The same measure, in the same setting: the same measure for B10: 284; for B11: 214; for B12: 148.

In another assay the target is Vg9/Vd2 T cell receptor expressed on SKW3_4 cells (UniProt Q99603). Briefly: flow cytometry, dose-response binding at 37 C, SKW3_4 cells expressing Vg9/Vd2.
Vg9/Vd2 T cell receptor expressed on SKW3_4 cells, sequence (Q99603 21-122, chain 1 of 2): as the sequence (Q99603 21-122) above
Vg9/Vd2 T cell receptor expressed on SKW3_4 cells, sequence (A0JD36 20-115, chain 2 of 2, further chain): as the sequence (A0JD36 20-115) above
B1 came in with a Max. Activity (fold over background) of 164.
The same measure, in the same setting: the same measure for B2: 57.2; for B3: 96.4.

In a further assay the target is Vg9/Vd2 T cell receptor on SKW3_4 cells (UniProt Q99603). Briefly: flow cytometry, DRC binding at 37°C on SKW3_4 cells expressing Vg9/Vd2.
Vg9/Vd2 T cell receptor on SKW3_4 cells, sequence (Q99603 21-122, chain 1 of 2): as the sequence (Q99603 21-122) above
Vg9/Vd2 T cell receptor on SKW3_4 cells, sequence (A0JD36 20-115, chain 2 of 2, further chain): as the sequence (A0JD36 20-115) above
B4: the Max. Activity (fold over background) was 167.
On the same count and under the same terms, the same measure for B5: 19.1; for B6: 155.
B7 gave a Max. Activity (fold over background) of 177.
Consider B8, for which the Max. Activity (fold over background) was 138.
With B9, the Max. Activity (fold over background) amounted to 152.
For the molecule B10, the Max. Activity (fold over background) turned out to be 184.
Same read-out and setting: the same measure for B11: 148; for B12: 151.

Another assay concerns the target Vg9/Vd1 T cell receptor on SKW3 cells (UniProt Q99603). Briefly: flow cytometry, DRC binding at 37°C on SKW3 cells expressing Vg9/Vd1.
B4 displayed a Max. Activity (fold over background) of 1.59.
Regarding B5, the Max. Activity (fold over background) was 24.9.
On the same count and under the same terms, the same measure for B6: 2.19; for B7: 1.04; for B8: 1.16.
Same read-out and setting: the same measure for B9: 2.74; for B10: 1.36; for B11: 7.28.
The molecule B12 came in with a Max. Activity (fold over background) of 6.29.

In a further assay the target is Vg5/Vd2 T cell receptor expressed on SKW3 cells (UniProt A0JD36). Briefly: flow cytometry, dose-response binding at 37 C, SKW3 cells expressing Vg5/Vd2.
Vg5/Vd2 T cell receptor expressed on SKW3 cells, sequence (A0JD36 20-115): as above
Molecule B1 yielded a Max. Activity (fold over background) of 233.
In turn, B2 registered a Max. Activity (fold over background) of 48.9.
As to B3, the Max. Activity (fold over background) was determined as 237.
